Measurements as given in paper PMC9352680, “A comprehensive thermodynamic model for RNA binding by the Saccharomyces cerevisiae Pumilio protein PUF4”.

T1: PUF4 RNA-binding domain (Saccharomyces cerevisiae, UniProt P25339 537-888)
T1 sequence: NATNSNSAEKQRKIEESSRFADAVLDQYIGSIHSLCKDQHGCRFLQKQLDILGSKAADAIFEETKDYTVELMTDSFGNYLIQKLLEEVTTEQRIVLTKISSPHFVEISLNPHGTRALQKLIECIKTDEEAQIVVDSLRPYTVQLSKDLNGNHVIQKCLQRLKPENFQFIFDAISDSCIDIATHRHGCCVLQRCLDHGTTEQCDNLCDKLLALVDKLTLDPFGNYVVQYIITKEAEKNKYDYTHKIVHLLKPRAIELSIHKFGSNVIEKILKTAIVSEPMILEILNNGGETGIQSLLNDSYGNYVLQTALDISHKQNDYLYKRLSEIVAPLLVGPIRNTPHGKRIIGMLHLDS


Target: T1, PUF4 RNA-binding domain
Assay: Mg; RNA-MaP; 20 mM Na-HEPES pH 7.4, 30 mM KOAc, 0.75 mM MgCl2, 0.1% Tween-20, 5% glycerol, 0.1 mg/mL BSA, 2 mM DTT; 25 C; 0.0125-409.6 nM protein
Conditions: tags: N-His6-TEV cleaved; C-SNAP kept, Cy3B-labelled; label: tethered on chip by stalled RNA polymerase

Binder	Kd [nM]
UCUCUUUUUAUAUUAUCUCUU (ssRNA) [Ia_S1_P4E.1_K4.1_C4.1_H4.1_[G2T]_A4.1_F4.1_T4.1]	655
Ic_S2_P5E.1_K5.1_C5.1_H5.1_A5.1_[T5C]_[T6C]_F5.1_[T8G]_[A10C]_T5.1 (ssRNA) RNA: UUUGAUUAAUAUGAUAUCGUUCUUUCUUGUACCAGUCUUCUUUCUCGAUAUCAUAUUAAUCUUU	192
Ic_S2_P5E.1_K5.1_C5.1_H5.1_A5.1_[T5G]_[A7C]_F5.1_[T9A]_T5.1 (ssRNA) RNA: UUUGAUUAAUAUGAUAUCGUUCUUUCUUGUAGUCUAAUUCUUUCUCGAUAUCAUAUUAAUCUUU	6.4
Ic_S2_P5E.1_K5.1_C5.1_H5.1_A5.1_[T5A]_[T6C]_[A7C]_F5.1_[T8A]_[A10G]_T5.1 (ssRNA) RNA: UUUGAUUAAUAUGAUAUCGUUCUUUCUUGUAACCAUGUUCUUUCUCGAUAUCAUAUUAAUCUUU	751
Ic_S2_P5E.1_K5.1_C5.1_H5.1_A5.1_[T6C]_[A7G]_F5.1_[T9A]_[A10C]_T5.1 (ssRNA) RNA: UUUGAUUAAUAUGAUAUCGUUCUUUCUUGUAUCGUACUUCUUUCUCGAUAUCAUAUUAAUCUUU	28
Ic_S2_P5E.1_K5.1_C5.1_H5.1_A5.1_[T5C]_[T6A]_[A7C]_F5.1_[T8A]_[A10G]_T5.1 (ssRNA) RNA: UUUGAUUAAUAUGAUAUCGUUCUUUCUUGUACACAUGUUCUUUCUCGAUAUCAUAUUAAUCUUU	114
Ic_S2_P5E.1_K5.1_C5.1_H5.1_A5.1_[T5G]_[A7C]_F5.1_[T8A]_[A10G]_T5.1 (ssRNA) RNA: UUUGAUUAAUAUGAUAUCGUUCUUUCUUGUAGUCAUGUUCUUUCUCGAUAUCAUAUUAAUCUUU	450
Ic_S2_P5E.1_K5.1_C5.1_H5.1_A5.1_[T6A]_F5.1_[T8C]_[T9G]_[A10T]_T5.1 (ssRNA) RNA: UUUGAUUAAUAUGAUAUCGUUCUUUCUUGUAUAACGUUUCUUUCUCGAUAUCAUAUUAAUCUUU	15
Ic_S2_P5E.1_K5.1_C5.1_H5.1_A5.1_[T5C]_[T6A]_[A7T]_F5.1_[T9A]_[A10C]_T5.1 (ssRNA) RNA: UUUGAUUAAUAUGAUAUCGUUCUUUCUUGUACAUUACUUCUUUCUCGAUAUCAUAUUAAUCUUU	0.894
Ic_S2_P5E.1_K5.1_C5.1_H5.1_A5.1_[T5G]_[T6C]_F5.1_[T9C]_T5.1 (ssRNA) RNA: UUUGAUUAAUAUGAUAUCGUUCUUUCUUGUAGCAUCAUUCUUUCUCGAUAUCAUAUUAAUCUUU	87.8
Ic_S2_P5E.1_K5.1_C5.1_H5.1_A5.1_[T5A]_[A7T]_F5.1_[T8A]_[T9C]_[A10G]_T5.1 (ssRNA) RNA: UUUGAUUAAUAUGAUAUCGUUCUUUCUUGUAAUUACGUUCUUUCUCGAUAUCAUAUUAAUCUUU	761
Ic_S2_P5E.1_K5.1_C5.1_H5.1_A5.1_[T5A]_[A7T]_F5.1_[T9C]_[A10G]_T5.1 (ssRNA) RNA: UUUGAUUAAUAUGAUAUCGUUCUUUCUUGUAAUUUCGUUCUUUCUCGAUAUCAUAUUAAUCUUU	108
Ic_S2_P5E.1_K5.1_C5.1_H5.1_A5.1_[T6A]_[A7G]_F5.1_[T8C]_[T9C]_[A10T]_T5.1 (ssRNA) RNA: UUUGAUUAAUAUGAUAUCGUUCUUUCUUGUAUAGCCUUUCUUUCUCGAUAUCAUAUUAAUCUUU	61.4
Ic_S2_P5E.1_K5.1_C5.1_H5.1_A5.1_[T5G]_[A7C]_F5.1_[T8G]_[T9C]_[A10C]_T5.1 (ssRNA) RNA: UUUGAUUAAUAUGAUAUCGUUCUUUCUUGUAGUCGCCUUCUUUCUCGAUAUCAUAUUAAUCUUU	1490
Ic_S2_P5E.1_K5.1_C5.1_H5.1_A5.1_[T5C]_[T6C]_F5.1_[T8C]_[T9C]_[A10C]_T5.1 (ssRNA) RNA: UUUGAUUAAUAUGAUAUCGUUCUUUCUUGUACCACCCUUCUUUCUCGAUAUCAUAUUAAUCUUU	347
Ic_S2_P5E.1_K5.1_C5.1_H5.1_A5.1_[T6C]_F5.1_[T9G]_[A10C]_T5.1 (ssRNA) RNA: UUUGAUUAAUAUGAUAUCGUUCUUUCUUGUAUCAUGCUUCUUUCUCGAUAUCAUAUUAAUCUUU	12.1
Ic_S2_P5E.1_K5.1_C5.1_H5.1_A5.1_[T5A]_[A7G]_F5.1_[T8C]_[A10T]_T5.1 (ssRNA) RNA: UUUGAUUAAUAUGAUAUCGUUCUUUCUUGUAAUGCUUUUCUUUCUCGAUAUCAUAUUAAUCUUU	423
Ic_S2_P5E.1_K5.1_C5.1_H5.1_A5.1_[T6A]_F5.1_[T8A]_[T9A]_T5.1 (ssRNA) RNA: UUUGAUUAAUAUGAUAUCGUUCUUUCUUGUAUAAAAAUUCUUUCUCGAUAUCAUAUUAAUCUUU	34.6

Binder	Kd [nM]
Ic_S2_P5E.1_K5.1_C5.1_H5.1_A5.1_[T5A]_[A7T]_F5.1_[T9G]_[A10C]_T5.1 (ssRNA) RNA: UUUGAUUAAUAUGAUAUCGUUCUUUCUUGUAAUUUGCUUCUUUCUCGAUAUCAUAUUAAUCUUU	70.7
Ic_S2_P5E.1_K5.1_C5.1_H5.1_A5.1_[T5C]_[T6A]_[A7G]_F5.1_[T9C]_[A10C]_T5.1 (ssRNA) RNA: UUUGAUUAAUAUGAUAUCGUUCUUUCUUGUACAGUCCUUCUUUCUCGAUAUCAUAUUAAUCUUU	13.5
Ic_S2_P5E.1_K5.1_C5.1_H5.1_A5.1_[T5C]_[T6G]_[A7T]_F5.1_[T8G]_[A10T]_T5.1 (ssRNA) RNA: UUUGAUUAAUAUGAUAUCGUUCUUUCUUGUACGUGUUUUCUUUCUCGAUAUCAUAUUAAUCUUU	22.9
Ic_S2_P5E.1_K5.1_C5.1_H5.1_A5.1_[T6C]_[A7T]_F5.1_[T8A]_T5.1 (ssRNA) RNA: UUUGAUUAAUAUGAUAUCGUUCUUUCUUGUAUCUAUAUUCUUUCUCGAUAUCAUAUUAAUCUUU	3.38
Ic_S2_P5E.1_K5.1_C5.1_H5.1_A5.1_[T6G]_[A7T]_F5.1_[T8G]_[T9C]_[A10C]_T5.1 (ssRNA) RNA: UUUGAUUAAUAUGAUAUCGUUCUUUCUUGUAUGUGCCUUCUUUCUCGAUAUCAUAUUAAUCUUU	49
Ic_S2_P5E.1_K5.1_C5.1_H5.1_A5.1_[T5C]_[T6C]_F5.1_[T9C]_[A10C]_T5.1 (ssRNA) RNA: UUUGAUUAAUAUGAUAUCGUUCUUUCUUGUACCAUCCUUCUUUCUCGAUAUCAUAUUAAUCUUU	8.45
Ic_S2_P5E.1_K5.1_C5.1_H5.1_A5.1_[T6G]_[A7C]_F5.1_[T8C]_[T9C]_[A10T]_T5.1 (ssRNA) RNA: UUUGAUUAAUAUGAUAUCGUUCUUUCUUGUAUGCCCUUUCUUUCUCGAUAUCAUAUUAAUCUUU	582
Ic_S2_P5E.1_K5.1_C5.1_H5.1_A5.1_[T5A]_[T6C]_[A7T]_F5.1_[T9G]_[A10T]_T5.1 (ssRNA) RNA: UUUGAUUAAUAUGAUAUCGUUCUUUCUUGUAACUUGUUUCUUUCUCGAUAUCAUAUUAAUCUUU	304
Ic_S2_P5E.1_K5.1_C5.1_H5.1_A5.1_[T5C]_F5.1_[T8C]_[T9C]_[A10C]_T5.1 (ssRNA) RNA: UUUGAUUAAUAUGAUAUCGUUCUUUCUUGUACUACCCUUCUUUCUCGAUAUCAUAUUAAUCUUU	245
Ic_S2_P5E.1_K5.1_C5.1_H5.1_A5.1_[T6A]_[A7C]_F5.1_[T9A]_[A10G]_T5.1 (ssRNA) RNA: UUUGAUUAAUAUGAUAUCGUUCUUUCUUGUAUACUAGUUCUUUCUCGAUAUCAUAUUAAUCUUU	1.41
Ic_S2_P5E.1_K5.1_C5.1_H5.1_A5.1_[T6G]_[A7T]_F5.1_[T9C]_[A10C]_T5.1 (ssRNA) RNA: UUUGAUUAAUAUGAUAUCGUUCUUUCUUGUAUGUUCCUUCUUUCUCGAUAUCAUAUUAAUCUUU	11.9
Ic_S2_P5E.1_K5.1_C5.1_H5.1_A5.1_[T5C]_[T6A]_F5.1_[T8A]_[T9A]_[A10T]_T5.1 (ssRNA) RNA: UUUGAUUAAUAUGAUAUCGUUCUUUCUUGUACAAAAUUUCUUUCUCGAUAUCAUAUUAAUCUUU	8.8
Ic_S2_P5E.1_K5.1_C5.1_H5.1_A5.1_[T5C]_[T6C]_[A7G]_F5.1_[T8G]_[A10C]_T5.1 (ssRNA) RNA: UUUGAUUAAUAUGAUAUCGUUCUUUCUUGUACCGGUCUUCUUUCUCGAUAUCAUAUUAAUCUUU	> 2300
Ic_S2_P5E.1_K5.1_C5.1_H5.1_A5.1_[T5C]_[T6C]_[A7C]_F5.1_[T8G]_[T9C]_[A10C]_T5.1 (ssRNA) RNA: UUUGAUUAAUAUGAUAUCGUUCUUUCUUGUACCCGCCUUCUUUCUCGAUAUCAUAUUAAUCUUU	1000
Ic_S2_P5E.1_K5.1_C5.1_H5.1_A5.1_[T5C]_[A7G]_F5.1_[T9A]_[A10T]_T5.1 (ssRNA) RNA: UUUGAUUAAUAUGAUAUCGUUCUUUCUUGUACUGUAUUUCUUUCUCGAUAUCAUAUUAAUCUUU	2.45
UCUCUUGGUAUAUUGUCUCUU (ssRNA) [Ib_S1_P4E.1_K4.1_C4.1_H4.1_[T1G]_A4.1_F4.1_[A9G]_T4.1]	690
UCUCUUAGUAUAUUGUCUCUU (ssRNA) [Ib_S1_P4E.1_K4.1_C4.1_H4.1_[T1A]_A4.1_F4.1_[A9G]_T4.1]	631
UCUCUUCGUAUAUUGUCUCUU (ssRNA) [Ib_S1_P4E.1_K4.1_C4.1_H4.1_[T1C]_A4.1_F4.1_[A9G]_T4.1]	663
